In data set [1] the target is gp96 (Homo sapiens, UniProt P14625). The data set can be described thus: In vitro binding of IPF with heat shock protein gp96. An excerpt:
FIG. 9 is a graph showing binding of an IPF with heat shock protein gp96 at dilutions of IPF 1/2500, IPF 1/500 and IPF 1/100, according to one embodiment of the present invention. A number of approaches may be used to detect complexing between IPF and gp96. By way of example, one such approach may be to obtain specific antibodies against IPF and gp96 and to build a sandwich immunoassay by suitable methods known in the art to detect the presence of these protein complexes. To detect binding of gp96 to IPF, the antigen may be coated on a plate to capture proteins from the sample and then report the binding with a specific detection antibody. The secondary (or detection) antibody may be directly labeled with MSD SULFO-TAG NHS ester or a SULFO-TAG-labeled anti-species, e.g., anti-mouse if the […] antibody is raised in mouse and the […] antibody is raised in a different species than the capture or primary antibody. Antibodies specific to IPF-gp96 complexes may also be used.

Data set [2] concerns the target human CD4 (Homo sapiens, UniProt P01730). The data set can be described thus: Biacore (SPR) binding of IPF to human CD4. To be noted: in vitro. The method, then: (§1) BIACORE assays were used for binding affinity. This technology measures mass concentration of biomolecules close to a surface. The surface is made specific by attaching one of the interacting partners. Sample containing the other partner(s) flows over the surface: when molecules from the sample bind to the interactant attached to the surface, the local concentration changes and an SPR (surface plasmon resonance) response is measured. The response is directly proportional to the mass of molecules that bind to the surface. The SPR response may be expressed by resonance units (RU). One RU represents change of 0.0001 in the angle of the intensity minimum which is equivalent to a change in concentration of […].
(§2) The exact conversion factor between RU and surface concentration depends on properties of the sensor surface and the nature of the molecule responsible for the concentration change.
(§3) The assays for these bindings were conducted by The Institute for Molecular Medicine using standard protocols.
The BIACORE biosensor instrument for detecting compound ligand interaction. BIACORE may capture proteins including molecules from ctyosolic or tissue extracts on sensor surfaces and measure the binding kinetics. SPR is an optical technique that measures the refractive index change occurring at the sensor liquid-fluid interface layer. […]

Data set [3] can be described thus: Biacore (SPR) binding of IPF to human serum. To be noted: in vitro. The method, then:
as §1, §2, §3

For data set [4] the following is noted: stated in contrast to IPF; cited from earlier work.

Entries after “also recorded” stand apart in the source; their conditions may differ. Where no end group is shown, it is not given here.

Chain of gp96 (P14625 22-803): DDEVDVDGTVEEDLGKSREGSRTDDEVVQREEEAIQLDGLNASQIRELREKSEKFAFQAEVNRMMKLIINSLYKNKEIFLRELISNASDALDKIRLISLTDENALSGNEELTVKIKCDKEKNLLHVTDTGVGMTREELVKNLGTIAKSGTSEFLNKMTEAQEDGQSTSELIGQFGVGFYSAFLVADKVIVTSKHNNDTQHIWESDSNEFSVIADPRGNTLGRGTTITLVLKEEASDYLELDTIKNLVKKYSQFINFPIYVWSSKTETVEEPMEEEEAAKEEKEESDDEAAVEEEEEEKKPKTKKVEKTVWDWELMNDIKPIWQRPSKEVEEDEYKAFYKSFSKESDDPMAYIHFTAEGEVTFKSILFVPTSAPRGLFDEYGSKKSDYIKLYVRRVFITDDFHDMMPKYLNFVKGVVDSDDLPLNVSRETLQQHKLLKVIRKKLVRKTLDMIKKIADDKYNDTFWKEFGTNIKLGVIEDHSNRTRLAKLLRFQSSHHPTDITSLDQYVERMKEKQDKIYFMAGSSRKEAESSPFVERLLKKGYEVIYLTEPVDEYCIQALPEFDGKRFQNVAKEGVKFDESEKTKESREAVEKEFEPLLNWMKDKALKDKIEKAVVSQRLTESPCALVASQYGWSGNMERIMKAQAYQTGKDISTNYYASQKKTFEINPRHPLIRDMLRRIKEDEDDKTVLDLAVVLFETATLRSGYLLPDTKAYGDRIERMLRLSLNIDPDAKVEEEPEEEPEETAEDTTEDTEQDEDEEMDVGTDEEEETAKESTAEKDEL

For the substance “IPF-1: peptide of SEQ ID NO 1, TLTSGGGAIALPPSMAAPPLGPVAPLTGAIHAPTXG, fragment of approximately 45 kDa from porcine pepsinogen (not fully specified; X: residue not identified in the source; listed as Sus scrofa)”, the “in vitro binding affinity for gp96” value in data set [1] is on record as “significant in vitro binding affinity”.

Turning to “IPF-2: peptide of SEQ ID NO 2, TLSTATGGAIPPVAAMPPGLVAPTHGPAIHP, from porcine pepsinogen (listed as Sus scrofa)”, the “in vitro binding affinity for gp96” value in data set [1] is “significant in vitro binding affinity”. As to “IPF-3: peptide of SEQ ID NO 3, NXVPVSVEGYXQITLDSITX, fragment of approximately 13.5 kDa from porcine pepsinogen (not fully specified; X: residue not identified in the source; listed as Sus scrofa)”, the “in vitro binding affinity for gp96” value in data set [1] is “significant in vitro binding affinity”. Same read-out and setting: the result for “IPF-4: peptide of SEQ ID NO 4, MTLTTGSGAIAPAMPPGLPPHTGAIHAPM, from porcine pepsinogen (listed as Sus scrofa)” reads “significant in vitro binding affinity”; that for “IPF-5: peptide of SEQ ID NO 5, CCATSGPCGAVMILTPHLTA, from porcine pepsinogen (listed as Sus scrofa)”, “significant in vitro binding affinity”. On to “IPF-6: antiviral peptide characterized by SEQ ID NO 6, GDEPLENYLDTEYF, isolated from 45 kDa band of porcine pepsinogen preparation (listed as Sus scrofa)”, for which the “binding with human CD4+ cells” value in data set [2] is “significant in vitro binding affinity; also recorded: demonstrates binding in vitro”. Also, in data set [3], the “binding with human serum” value is given as “demonstrates binding in vitro”.

With “Pepsin: porcine pepsin A, the starting material, compared for pI”, in data set [4], the pI entry is recorded as “low”.
